Source: article PMC6807164, “The lipid transfer protein Saposin B does not directly bind CD1d for lipid antigen loading” (Wellcome Open Research, 2019)
One block for each molecule: values may come before it.

Assays:
[1] = target: CD14 (Homo sapiens) (UniProt P08571); conditions: cited from earlier work
[2] = target: Apolipoprotein B (Homo sapiens) (UniProt P04114); conditions: cited from earlier work
[3] = target: T1, CD1d-β2m complex (glycosylated CD1d-H6 with untagged β2m) (human, UniProt P15813 20-301; P61769 21-119, glycosylated (N-linked glycans from expression in HEK293F)); test: equilibrium binding assay (depletion of prey from the supernatant, no wash steps); CD1d-β2m on Ni-NTA agarose beads at 0-40 μM, SapB at 680 nM; 50 mM HEPES pH 7.0, 150 mM NaCl, 0.05% digitonin, 2.5 mM CaCl2, 2.5 mM MgCl2; 1 hour at room temperature; unbound SapB detected by SYPRO Ruby; both proteins with the endogenous lipids they co-purify with; conditions: both partners purified
T1 construct: CD1d, human, extracellular domain, residues 20-301 of UniProt P15813; expressed behind the vector's N-terminal secretion signal; β-2-microglobulin, human, residues 21-119 of UniProt P61769; untagged; Carries endogenous human lipids as purified; The results call β2m full-length, the methods give residues 21-119; also called CD1d-H 6-β 2m; gCD1d; not shown: His6, C-terminal, kept

Chain of Apolipoprotein B (Homo sapiens) (P04114 28-2179): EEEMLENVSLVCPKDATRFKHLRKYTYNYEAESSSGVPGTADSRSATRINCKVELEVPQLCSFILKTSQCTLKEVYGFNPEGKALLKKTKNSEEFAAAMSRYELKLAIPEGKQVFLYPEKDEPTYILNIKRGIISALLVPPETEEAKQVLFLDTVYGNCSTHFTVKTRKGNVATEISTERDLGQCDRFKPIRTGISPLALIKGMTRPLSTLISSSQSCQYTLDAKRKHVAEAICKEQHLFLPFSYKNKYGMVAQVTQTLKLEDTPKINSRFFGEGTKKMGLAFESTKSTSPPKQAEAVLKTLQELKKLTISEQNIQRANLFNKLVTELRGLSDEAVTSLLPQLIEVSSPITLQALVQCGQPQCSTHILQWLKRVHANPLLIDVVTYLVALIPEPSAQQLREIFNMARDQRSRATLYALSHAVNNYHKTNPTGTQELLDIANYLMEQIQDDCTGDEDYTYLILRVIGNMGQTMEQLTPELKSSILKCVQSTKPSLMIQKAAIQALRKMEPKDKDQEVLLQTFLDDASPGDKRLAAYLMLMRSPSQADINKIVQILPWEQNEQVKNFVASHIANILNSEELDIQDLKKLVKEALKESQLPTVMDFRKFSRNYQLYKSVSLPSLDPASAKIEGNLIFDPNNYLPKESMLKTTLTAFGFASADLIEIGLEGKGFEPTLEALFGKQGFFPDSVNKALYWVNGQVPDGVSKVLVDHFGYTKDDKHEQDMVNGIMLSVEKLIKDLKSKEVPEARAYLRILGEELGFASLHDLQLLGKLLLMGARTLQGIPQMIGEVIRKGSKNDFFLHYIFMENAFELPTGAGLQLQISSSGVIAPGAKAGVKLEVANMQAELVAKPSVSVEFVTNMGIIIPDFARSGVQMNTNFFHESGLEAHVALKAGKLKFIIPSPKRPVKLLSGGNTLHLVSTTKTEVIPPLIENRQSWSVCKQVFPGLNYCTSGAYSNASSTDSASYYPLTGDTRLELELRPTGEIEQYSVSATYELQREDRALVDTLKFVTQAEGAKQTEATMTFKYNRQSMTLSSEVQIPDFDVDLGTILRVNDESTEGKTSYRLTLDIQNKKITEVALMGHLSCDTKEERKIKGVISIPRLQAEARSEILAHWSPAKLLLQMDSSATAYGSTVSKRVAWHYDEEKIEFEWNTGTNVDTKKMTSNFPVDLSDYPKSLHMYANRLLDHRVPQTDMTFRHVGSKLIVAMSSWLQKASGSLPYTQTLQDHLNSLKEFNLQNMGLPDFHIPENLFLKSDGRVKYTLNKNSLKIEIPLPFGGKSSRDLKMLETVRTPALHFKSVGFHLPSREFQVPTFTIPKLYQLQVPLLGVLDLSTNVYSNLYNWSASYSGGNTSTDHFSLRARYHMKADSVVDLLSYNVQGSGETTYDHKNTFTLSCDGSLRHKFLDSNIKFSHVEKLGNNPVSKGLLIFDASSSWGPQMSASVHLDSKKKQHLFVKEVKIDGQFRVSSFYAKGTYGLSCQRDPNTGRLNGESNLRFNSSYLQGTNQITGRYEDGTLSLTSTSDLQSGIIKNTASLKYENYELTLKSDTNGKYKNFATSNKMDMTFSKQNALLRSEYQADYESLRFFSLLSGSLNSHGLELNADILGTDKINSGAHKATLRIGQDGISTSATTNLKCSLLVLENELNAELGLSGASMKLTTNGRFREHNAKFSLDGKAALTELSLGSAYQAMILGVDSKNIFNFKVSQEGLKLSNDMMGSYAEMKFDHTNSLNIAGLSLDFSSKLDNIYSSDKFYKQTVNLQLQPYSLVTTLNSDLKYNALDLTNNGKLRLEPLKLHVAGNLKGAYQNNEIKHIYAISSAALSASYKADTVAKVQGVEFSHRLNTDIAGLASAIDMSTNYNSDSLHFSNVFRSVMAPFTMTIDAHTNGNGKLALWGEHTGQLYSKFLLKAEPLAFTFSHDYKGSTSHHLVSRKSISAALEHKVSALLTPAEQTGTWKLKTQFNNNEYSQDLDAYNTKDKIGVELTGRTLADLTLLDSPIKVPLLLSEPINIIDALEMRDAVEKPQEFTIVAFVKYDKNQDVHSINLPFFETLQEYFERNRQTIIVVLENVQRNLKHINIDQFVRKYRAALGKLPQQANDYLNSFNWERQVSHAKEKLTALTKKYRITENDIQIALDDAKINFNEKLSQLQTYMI
Chain of CD14 (Homo sapiens) (P08571 20-345): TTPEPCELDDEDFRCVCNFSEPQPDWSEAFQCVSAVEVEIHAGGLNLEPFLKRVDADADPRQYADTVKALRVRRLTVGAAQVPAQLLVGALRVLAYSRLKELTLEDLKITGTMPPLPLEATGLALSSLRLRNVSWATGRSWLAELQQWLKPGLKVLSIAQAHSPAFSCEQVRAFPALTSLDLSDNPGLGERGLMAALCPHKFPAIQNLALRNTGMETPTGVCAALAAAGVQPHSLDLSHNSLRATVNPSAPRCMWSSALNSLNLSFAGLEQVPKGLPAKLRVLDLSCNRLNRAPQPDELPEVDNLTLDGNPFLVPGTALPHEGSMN

Molecule: LPS binding protein (LBP) (from UniProt P18428)
Kd [1]: 5.52 nM

Molecule: Microsomal Triglyceride Transfer protein (from UniProt P55157)
Kd [2]: 20 nM

Kd [3]: > 40000 nM
B1: Saposin B, untagged, expressed in E. coli (unglycosylated) (natural protein, human, UniProt P07602 195-274, looked up)
chain: GDVCQDCIQMVTDIQTAVRTNSTFVQALVEHVKEECDRLGPGMADICKNYISQYSEIAIQMMMHMQPKEICALVGFCDEV
notes: Saposin B, the segment of human prosaposin (PSAP) residues 195-274, UniProt P07602; Cloned into pET-15b by NcoI and XhoI to give untagged protein; Co-purifies with E. coli lipid; also called SapB; ugSapB; source: E. coli Origami (DE3), purified (heat treatment, anion exchange, SEC)
